These results are taken from patent US20230212587A1, “Mutant Hydroxyphenylpyruvate Dioxygenase Polypeptide, Encoding Gene Thereof and Use Therefor” (Beijing Dabeinong Biotechnology Co., Ltd., priority 2019, published 2023).

The test system of this assay is Arabidopsis thaliana T1 plants. The assay can be described thus: Topramezone tolerance of transgenic Arabidopsis thaliana T1 plants (pesticide damage grade by bleached leaf area, score, resistance evaluation). The class given is in vivo. Particulars: HPPD F372V mutants, Table 7. In a few lines: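 Herbicide tolerance was judged per plant on a bleaching scale (grade 0 no bleaching to grade 3 fully bleached) 7 DAT. Topramezone doses were 0, 25, 50 and 100 g ai/ha on 18-day-old T1 and wild-type plants.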

B1: N3HPPDm-F372V: Burkholderia sp. N3 HPPD mutant F372V, SEQ ID NO: 393 (protein)
chain: MQIPNWENPVGTDGFEFIEYTAPDPKALGQLFERMGFTAIARHRHKDVTVYRQGDINFIINAEPHSFAQRFARLHGPSICAIAFRVQDAAKAYQHALELGAWGFDNKTGPMELNIPAIKGIGDSLIYFVDRWRGKNGAQPGAIGDISIYDVDFEPIAGANPNPAGHGLTYIDHLTHNVHRGRMQEWAEFYERLFNFREVRYFDIEGKVTGVKSKAMTSPCGKIRIPINEEGSDTAGQIQEYLDAYHGEGIQHIALGTNDIYGAVDGLRGKEVKLLDTIDTYYELVDRRVPDHGESLDELKKRKILIDGARDDLLLQIVTENQIGPIFFEIIQRKGNQGFGEGNFKALFESIELDQIRRGVVQDKA
modifications: N3HPPDm-F372V Amino Acid Sequence
On to B1, for which the Resistance evaluation result is “Highly resistant” (topramezone 25 g ai/ha (1x)) and “Highly resistant” (topramezone 100 g ai/ha (4x)).

B2: N1HPPDm-F372V: Sphingobium sp. N1 HPPD mutant F372V, SEQ ID NO: 389 (protein)
chain: MAADSENPLGLHGFAFAEFTSPDPAAMARQFEQLGFVPAARRKDRGLTLYRQGRIAFILNAGEGEQASAFRAAHGPSANGMAFNVADAKAAHRHAIQSGATDADTAQSALPGTYAIEGIGDSLLYLVDSDPFADWDEVPGWREASAERGVGLDLLDHLTHNVRRGQMRVWSEFYATLFGFEEQKFFDIKGQATGLFSQAMIAPDHEIRIPLNESQDDNSQIEEFIREYNGEGIQHLALTTPDIYSTVEKLRANGVRLQDTIDTYYDLVDERVPGHGEDLARLRKNRILIDGDVHDEGLLLQIVTETMFGPIFFEIIQRKGNEGFGNGNFQVLYESIELDQIRRGVVTVDA
modifications: N1HPPDm-F372V Amino Acid Sequence
Regarding B2, the Resistance evaluation result runs as follows: (topramezone 25 g ai/ha (1x)) “Highly resistant”; (topramezone 100 g ai/ha (4x)) “Highly resistant”.

B3: ZmHPPDm-F372V: Zea mays HPPD mutant F372V, SEQ ID NO: 347 (protein)
chain: MPPTPTAAAAGAAVAAASAAEQAAFRLVGHRNFVRFNPRSDRFHTLAFHHVELWCADAASAAGRFSFGLGAPLAARSDLSTGNSAHASLLLRSGSLSFLFTAPYAHGADAATAALPSFSAAAARRFAADHGLAVRAVALRVADAEEAFRTSVAAGARPAFGPVDLGRGFRLAEVELYGDVVLRYVSYPDGAAGEPFLPGFEGVASPGAADYGLSRFDHIVGNVPELAPAAAYFAGFTGFHEFAEFTTEDVGTAESGLNSMVLANNSENVLLPLNEPVHGTKRRSQIQTFLDHHGGPGVQHMALASDDVLRTLREMQARSAMGGFEFMAPPTSDYYDGVRRRAGDVLTEAQIKECQELGVLVDRDDQGVLLQIVPKPVGDRPTLFLEIIQRIGCMERDEKGQEYQKGGCGGFGKGNFSQLFKSIEDYEKSLEAMQAAAAATAQGS
modifications: ZmHPPDm-F372V Amino Acid Sequence
On to B3, for which the Resistance evaluation result reads like this: (topramezone 25 g ai/ha (1x)) “Highly resistant”; (topramezone 100 g ai/ha (4x)) “Poorly resistant”.

B4: N2HPPDm-F372V: Sphingobium sp. N2 HPPD mutant F372V, SEQ ID NO: 391 (protein)
chain: MTLFDNPLGLDGFEFVEFSAPAKGMLEPVFAAMGFVMIARHRSKDVQLWRQGGINLIANYEPRSPAAYFAAEHGPSACGMGWRVRNAAKAYELAVERGAEPVDVKTGPMELRLPAIRGIGGSIIYLIDRYEDEDGGLSIYDIDFVYEPGVDRHPEGAGFKIIDHLTHNVYGGRMAHWASFYERVFGFREIRYFDIKGEYTGLTSKAMTAPDGKIRIPLNEEGKAGGGQIEEFLRAYNGEGIQHIAFLCDDLIAAWDKLKALGTPLMTAPPATYYEMLDERLPGHGEPVAELQKRGILLDGSTQQGDPRLLLQIVGQATIGPVFFEFIQRKKDEGFGEGNFTALFESMERDQLRRGTLNAGESA
modifications: N2HPPDm-F372V Amino Acid Sequence
As to B4, the Resistance evaluation result (topramezone 25 g ai/ha (1x)) is “Highly resistant” and the Resistance evaluation entry (topramezone 100 g ai/ha (4x)) is given as “Highly resistant”.
